According to article PMC5691656 (Viruses, 2017):
No end group written: not given here.

What was measured:
[1] = target: Noxa BH3 (Homo sapiens) (UniProt Q13794); experiment: ITC; details: cited from earlier work
[2] = target: CNP058 (Canarypox virus, UniProt Q6VZT9); experiment: biochemical; format: binding
[3] = target: T1, Canarypox virus CNP058 lacking the C-terminal transmembrane domain (residues 1–143) (canarypox virus, UniProt Q6VZT9 1-143); experiment: ITC; details: both partners purified
T1 sequence: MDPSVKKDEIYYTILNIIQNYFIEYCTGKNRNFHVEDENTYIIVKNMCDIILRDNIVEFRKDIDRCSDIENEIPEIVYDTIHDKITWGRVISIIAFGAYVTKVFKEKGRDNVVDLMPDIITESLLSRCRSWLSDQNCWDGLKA

Chain of Noxa BH3 (Homo sapiens) (Q13794 18-43): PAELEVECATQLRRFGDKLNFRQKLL

Molecule: FPV039 (from UniProt Q9J5G4)
- Kd [1]: 0.028 µM

Molecule: PEVNEAIVRTIAAQLAEIGDQLDKQIKAKVVNDL [GG_Bid]
- Kd [2]: 0.05 µM

Molecule: EEQWAREIGAQLRRMADDLNAQYERR [Homo sapiens Puma BH3 domain peptide (residues 130-155)]
- Kd [3]: 2.48 µM

Molecule: VPQDASTKKLSECLKRIGDELDSNMELQ [Homo sapiens Bax BH3 domain peptide (residues 50-77)]
- Kd [3]: 0.326 µM

B1: Gallus gallus Noxa BH3 domain peptide (peptide)
peptide: ERDAVAECALELRRIGDKADLQQKVL
notes: Noxa, Gallus gallus, BH3 domain peptide; source: synthetic peptide (Mimotopes)
- Kd [3]: 3.28 µM

Molecule: EARTEVQIARKLQCIADQFHRLHIQR [Gallus gallus Bmf BH3 domain peptide (residues 135-160)]
- Kd [3]: 0.294 µM

Molecule: PEVNEAIVRTIAAQLAEIGDQLDKQIKAKVVNDL [Gallus gallus Bid BH3 domain peptide (residues 77-110)]
- Kd [3]: 0.05 µM
